Measurements as given in patent US20070066800A1, “Apo2l(trail) receptor binding peptides and uses thereof” (priority 2003, published 2007).

B1: LB963 (peptide)
chain: GEVCLTECSKLT
modifications: phage-displayed
B2: LB953 (peptide)
chain: GEVCLTLCSRLT
modifications: displayed on phage
B3: LB952 (peptide)
chain: GEVCLTLCSKLR
modifications: displayed on phage
B4: LB954 (peptide)
chain: GRVCLTLCSKLR
modifications: phage-displayed
B5: LB960 (peptide)
chain: GEVCLTECSRLT
modifications: phage-displayed
B6: LB959 (peptide)
chain: GEVCLTECSKLR
modifications: displayed on phage
B7: LB956 (peptide)
chain: GEVCLTLCSKLT
modifications: displayed on phage
B8: LB936 (peptide)
chain: GEVCLTSCERIR
modifications: displayed on phage
B9: LB935 (peptide)
chain: GEVCLTMCSRLR
modifications: displayed on phage
B10: 3H858-1 (peptide)
chain: FEQGEVCMTLCEKLM
modifications: phage-displayed
B11: LB845 (peptide)
chain: EVCMTSCEKLMSAL
modifications: phage-displayed
B12: LB934 (peptide)
chain: GEVCLTLCSRLR
modifications: phage-displayed
B13: R10A (peptide)
chain: GEVCLTSCSALR
modifications: phage-displayed
B14: V3A (peptide)
chain: GEACLTSCSRLR
modifications: phage-displayed
B15: 2Hd7-3 (peptide)
chain: CVAMTTCDKLRECMAI
modifications: phage-displayed
B16: 871-4-S3 (peptide)
chain: RLPGEVCLTSCERLL
modifications: phage-displayed
B17: 2H9-15 (peptide)
chain: EVCMTSCDRLKQAFLL
modifications: phage-displayed
B18: LB938 (peptide)
chain: GEVCLTSCSRIR
modifications: displayed on phage
B19: 871-31-S3 (peptide)
chain: ESRGEVCLTSCERLR
modifications: phage-displayed
B20: S9A (peptide)
chain: GEVCLTSCARLR
modifications: phage-displayed
B21: 2Hd7-1 (peptide)
chain: CVAMTTCSKLRQCLSA
modifications: phage-displayed
B22: LB937 (peptide)
chain: GEVCLTSCDRLR
modifications: phage-displayed
B23: 2Hd7-2 (peptide)
chain: CVAMTSCEKLRSCLLL
modifications: displayed on phage
B24: LB867 (peptide)
chain: QEVCMTSCDKLMKANWMAAM
modifications: phage-displayed
B25: LB933 (peptide)
chain: GEVCLTTCSRIR
modifications: phage-displayed
B26: 3H857-13 (peptide)
chain: VEAGEVCLTLCEKLM
modifications: phage-displayed
B27: 2Hd7-20 (peptide)
chain: CVAMTSCDKLRLCQLL
modifications: phage-displayed
B28: 2Hd7-7 (peptide)
chain: CVAMTTCEKLRLCQSL
modifications: phage-displayed
B29: LB848 (peptide)
chain: EVCMTSCEKLM
modifications: phage-displayed
B30: LB847 (peptide)
chain: EVCMTSCEKLMS
modifications: displayed on phage
B31: 2H9-13 (peptide)
chain: EVCMTSCEKLMSALSL
modifications: phage-displayed
B32: LB882 (peptide)
chain: GEVCLTSCERLR
modifications: phage-displayed
B33: LB846 (peptide)
chain: EVCMTSCEKLMSA
modifications: displayed on phage

The molecules below were run against T1, Hu DR5 ECD (SEQ ID NO: 105) (Homo sapiens, UniProt O14763, A67V/E190F/V191A) (assay: Phage competition Ic50 ELISA (phagemid binding assay), competitor DR5 ECD). Details: Positive clones, competitor DR5 ECD (Comp/DR5 EcD).
T1 construct: Human DR5-ECD long form polypeptide
Experimental: The Apo-2L receptor binding peptides disclosed herein were identified from the bacteriophage peptide library constructs shown in Tables I and II using the following phagemid binding assay.
1. Coat microtiter plate wells with 80 ul of 1 ug/ml Apo-2L receptor DR5 ECD (SEQ ID NO: 105) (in 50 mM sodium carbonate pH 9.6) at 4° C. overnight.
2. Remove coat and block with 200 ul PBS/0.1% BSA. Incubate 1 hour at room temperature.
3. Prepare competing receptor solutions (100 ul/sample).
Dispense SOul binding buffer to row H through B in a new non-sticky 96-well plate.
Dispense 75 ul competing receptor solution to row A.
Make 3-fold serial dilutions by transferring 25 ul solution along columns except for row H (use fresh tip set for each transfer).
4. Prepare appropriate subsaturating phage dilution (predetermined from phage dilution series).
Transfer 50 ul of phage diluent to each microtiter well of the non-sticky plate. Start at row H then G,F,E,D,C,B,A respectively.
Incubate at R.T. for 2 hours.
5. Shake block off plate which has been coated with DR5 ECD (SEQ ID NO: 105) and rinse 10 times with PBS+0.05% tween 20.
6. Transfer 80 ul the mixture of competing receptor and phage from the non-sticky plate to DR5 ECD coated plate and incubate 20 minutes at room temperature.
7. Make a 1:5000 dilution of HRP conjugate anti-M13 monoclonal Ab (Amersham Pharmacia Biotech) into binding buffer.
Rinse plate 10 times with PBS/tween20 (be thorough here to remove vast excess of non displaying phage).
Add 80 ul of Ab diluent to row H through A.
8. Mix TMB peroxidase substrate and peroxidase solution B at equal volume.
Rinse plate 10 times with PBS/tween20.
Add 80 ul of substrate to row H through A.
Incubate as required to develop and stop with 80 ul 2.5M H2SO4.
A number of bacteriophage clones expressing peptides of interest were generated using the above methods and then purified using limiting dilution. In order to further characterize specific clones of interest (e.g. to determine Ic 50 values), phage clones were grown and then purified using a polyethylene glycol based method as described in Sidhu et al., Methods Enzymol. 328, 333-363 (2000). Alternative methods for generating and purifying bacteriophages are also known in the art. See, e.g. Current Protocols In Molecular Biology, Volume 1, Units 1, 5 and 6, Frederick M. Ausubel et al. eds., 1995.
Phage clones identified using the above methods were grown and then purified using the following polyethylene glycol based method. Briefly, a bacterial culture infected with a phage clone of interest is grown under conditions favorable to phage growth and then centrifuged for 10 min at 2° C. and 16,000 g. The supernatant is then transferred to a fresh centrifuge tube and a 1/5 volume of PEG-NaCl (PEG 8000 (200 g/L), NaCl (146 g/L), autoclaved) is added. The mixture is then incubated for 5 minutes at room temperature. The mixture is then centrifuged as above and the supernatant decanted. The supernatant is then respun briefly and the remaining supernatant removed. The phage pellet is then resuspended in 1/20 volume of PBS (or other analogous buffer). Insoluble matter is then pelleted by centrifugation. The supernatant containing the purified phage is saved and used in assays such as Ic 50 and Ec 50 assays that are described in the following examples.
In the Tables provided herein, “Ic 50” refers to the measure of the concentration of peptide needed to inhibit 50% of Apo-2L (e.g. amino acids 114 to 281 of SEQ ID NO: 1) binding to an Apo-2L receptor molecule (e.g. DR4-IgG (SEQ ID NO: 108) or DR5 ECD (SEQ ID NO: 105) etc.). The peptides are classified such that class 1-class 4 represent a, b, c, and d respectively.

| IC50 [nM] | Molecule |
| --- | --- |
| 49 | 2Hd7-3 (CVAMTTCDKLRECMAI) [Peptide 2Hd7-3] |
| 19.6 | 2Hd7-2 (CVAMTSCEKLRSCLLL) [Peptide 2Hd7-2] |
| 14.9 | LB882 (GEVCLTSCERLR) |
| 4.9 | 2Hd7-1 (CVAMTTCSKLRQCLSA) [Peptide 2Hd7-1] |
| > 100 | LB931 (GEVCMTSCSRLR) |
| 11.2 | 930-S8-4 (AVGEVCLTECSRLIQR) [Peptide 930-S8-4] |
| > 100 | LB932 (GEVCLSSCSRLR) |
| 14.9 | 871-31-S3 (ESRGEVCLTSCERLR) [Peptide 871-31-S3] |
| > 100 | LB939 (GEVCLTSCSRVR) |
| > 100 | LB940 (GEVCLTSCSRLK) |
| 78.4 | 2H9-15 (EVCMTSCDRLKQAFLL) [Peptide 2H9-15] |
| 78.4 | Hd5-10: first generation (G1) peptide lead, SEQ ID NO: 14 (NVDQECMTTCTRLRECQLLL) |
| 49 | E2A (GAVCLTSCSRLR) [Peptide E2A] |
| 23.8 | LB933 (GEVCLTTCSRIR) |
| 9.8 | G1A (AEVCLTSCSRLR) [Peptide G1A] |
| 66.7 | 3H858-2 (IRVGEVCMTTCEKLM) [Peptide 3H858-2] |
| 167 | 3H857-13 (VEAGEVCLTLCEKLM) [Peptide 3H857-13] |
| 29 | 2Hd7-20 (CVAMTSCDKLRLCQLL) [Peptide 2Hd7-20] |
| 9 | LB936 (GEVCLTSCERIR) |

These molecules were tested against Human DR5-ECD long form polypeptide (human) (assay: phage competition ELISA, cross-reactivity). Details: not given.

| IC50 [nM] | Molecule |
| --- | --- |
| 11.8 | B1 |
| 23.5 | B2 |
| 424 | B3 |
| 23.5 | B4 |
| 17.6 | B5 |
| 23.5 | B6 |
| 35.3 | B7 |

What follows are molecules tested against Human DR5-ECD long form polypeptide (human) (assay: phage competition ELISA (Comp/DR5 ECD)). Details: not given.

| IC50 [nM] | Molecule |
| --- | --- |
| 9 | B8 |
| 11.8 | B1 |
| 23.5 | B2 |
| 4.5 | B9 |
| 83.3 | B10 |
| 424 | B3 |
| 39.2 | B11 |
| 3 | B12 |
| 9.8 | B13 |
| 23.5 | B4 |
| 9.8 | B14 |
| 49 | B15 |
| 17.6 | B5 |
| 149 | B16 |
| 23.5 | B6 |
| 78.4 | B17 |
| 11.9 | B18 |

| IC50 [nM] | Molecule |
| --- | --- |
| 14.9 | B19 |
| 12.7 | B20 |
| 4.9 | B21 |
| 11.9 | B22 |
| 19.6 | B23 |
| 29.4 | B24 |
| 23.8 | B25 |
| 167 | B26 |
| 29 | B27 |
| 6.9 | B28 |
| 29400 | B29 |
| 735 | B30 |
| 79.1 | B31 |
| 35.3 | B7 |
| 14.9 | B32 |
| 49 | B33 |

These molecules were tested on Apo-2L.0 and DR5 (assay: IC50). Details: not given.
Excerpt: Table printed on a drawing sheet, FIG._4C
Title: Step 3: Truncation Scan
The patent's description of the figure: FIGS. 4A-4D provide illustrations of the protocols used to modify Apo-2L receptor binding peptides.
Where the first naming reader finds the target: passage: inhibit the interaction between Apo-2L.0 (amino acids 114 to 281 of SEQ ID NO: 1) and DR5 (SEQ ID NOs: 105 and 109)

| IC50 [nM] | Molecule |
| --- | --- |
| 79 | EVCMTSCEKLMSALSL |
| 39 | EVCMTSCEKLMSAL [C1-14] |
| 49 | EVCMTSCEKLMSA [C1-13] |
| 2940 | EVCMTSCEKLM [C1-11*] |
